The text below walks through data of paper PMC11429640.

This experiment has as its target high-stability mutant of the MMP-9 catalytic domain (MMP9CAT*) lacking the fibronectin-like domain (human) (UniProt P14780). The experiment in a line: enzyme activity inhibition assay (fluorogenic substrate, fit to the Morrison equation); apparent Ki (Ki^app); varying concentrations of N-TIMP2 incubated with 0.26 nM MMP-9CAT* for 60 min at 37 °C in 50 mM Tris-HCl, 0.15 M NaCl, 10 mM CaCl2, 0.02% Brij-35 pH 7.5; then 7.5 µM fluorogenic substrate; at least three assays for each protein.
Chain of UniProt P14780 (P14780 other isoform, or with tags, fused parts or gaps mutant): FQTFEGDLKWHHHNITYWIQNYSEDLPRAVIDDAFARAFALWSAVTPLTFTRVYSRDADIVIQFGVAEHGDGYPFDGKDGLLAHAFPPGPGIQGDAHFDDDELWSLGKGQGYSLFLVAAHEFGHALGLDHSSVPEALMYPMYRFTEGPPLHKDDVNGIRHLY

Take “WT N-TIMP2 containing internal FLAG-tag, c-myc-tag, and His-tag (domain or fragment)”: the Ki came out at 320 pM.
